According to publication PMC4594993:
pKd: −log10 of the molar value.

Target: extracellular domain of basigin (CD147-ED)
Test: SPR; ProteOn XPR36, CD147-ED immobilised on an activated GLC chip; CD98-ED injected at 0, 3, 1.5, 0.75, 0.375, 0.1875 uM, association 180 s, dissociation 600 s; 1:1 binding model

Substance “extracellular domain of CD98 (CD98-ED, residues 111-530 of human 4F2hc) (domain or fragment)” has a pKd of 6.73.
